Series [1] has as its target T1, Ac-Ubc9K65 (Homo sapiens, UniProt P63279).
T1 construct: made in house; host or cells: E. coli BL21 (DE3) with pAcKRS-3 and pCDF PylT-1-Ubc9 (amber codon at K65), fed acetyl-lysine
The series can be described thus: Multiple-turnover in vitro sumoylation kinetics with Ac-Ubc9K65. The series is classed as biochemical. Particulars: Michaelis-Menten, SUMO-1 conjugation; for Km: 100 nM Ac-Ubc9K65, 10 μM SUMO-1, 150 nM E1, pH 7.5, SDS-PAGE/SYPRO-RUBY, triplicate; for kcat: 100 nM Ac-Ubc9K65, 10 μM SUMO-1, 150 nM E1, pH 7.5, triplicate. Here is the method:
(§1) Although the decreased Ubc9 binding to the NDSM substrates on K65 acetylation could explain the reduced levels of NDSM substrate sumoylation, we could not entirely exclude the possibility that K65 acetylation could also affect Ubc9 catalytic activity. To test this possibility, an enzyme kinetics study was performed using multiple-turnover in vitro sumoylation assays between WT or Ac-Ubc9K65 and GST fusion of SM derived from RanGAP1 (Fig. 3A and B), Elk1 (Fig. 3C and D), and CBP (Fig. 3E and F). […] In line with the ITC results, K65 acetylation increased the km values by 1.5–1.7 fold of the NDSM peptides, but not the RanGAP1 SM.
(§2) Figure 3 Effect of K65 acetylation on Ubc9 catalysis. (A) Summary of Michaelis–Menten kinetics applied to SUMO conjugation rates for GST-RanGAP1_481-587 (B and C), GST-Elk1_200-261 (D and E) and GST-CBP1000-1080 (F and G). Experiments performed in triplicate. TEXT PRINTED IN THE PICTURE: (A) RanGAP1: Km (μM): 24.8 ± 1.7 (Ubc9: WT); kcat (min^-1): 4.3 ± 0.1 (Ubc9: WT); Km (μM): 21.0 ± 4.4 (Ubc9: K65-Ac); kcat (min^-1): 4.1 ± 0.3 (Ubc9: K65-Ac) | (A) Elk1: Km (μM): 75.2 ± 5.9 (Ubc9: WT); kcat (min^-1): 3.7 ± 0.5 (Ubc9: WT); Km (μM): 110.7 ± 7.8 (Ubc9: K65-Ac); kcat (min^-1): 4.0 ± 0.2 (Ubc9: K65-Ac) | (A) CBP: Km (μM): 63.8 ± 7.9 (Ubc9: WT); kcat (min^-1): 3.8 ± 0.4 (Ubc9: WT); Km (μM): 111.0 ± 11.6 (Ubc9: K65-Ac); kcat (min^-1): 4.5 ± 0.4 (Ubc9: K65-Ac) | (A) Calpain2: Km (μM): N.D. (Ubc9: WT); kcat (min^-1): N.D. (Ubc9: WT); Km (μM): N.D. (Ubc9: K65-Ac); kcat (min^-1): N.D. (Ubc9: K65-Ac)
(§3) The kinetic analysis[27] was performed in a 40 μl reaction mixture containing 10 μM SUMO-1, 150 nM E1, 100 nM WT or Ac-Ubc9K65, and known quantities of sumoylation substrate dissolved in a buffer containing 20 mM HEPES (pH 7.5), 100 mM NaCl, 5 mM MgCl2, and 2 mM ATP. The samples were subject to SDS-PAGE and visualized by SYPRO-RUBY staining using the UVP Gel-Doc-It system to quantify the sumoylated and non-sumoylated protein bands. Data from triplicate experiments were plotted as a graph of reaction velocity against concentration of the substrate to obtain the Michaelis–Menten constant (km) and the turnover number (kcat).

Series [2] addresses T2, Ubc9 (WT) (Homo sapiens, UniProt P63279).
T2 construct: made in house; host or cells: E. coli (stated as BL21 (DE3) for the acetylated variant)
The series can be described thus: Multiple-turnover in vitro sumoylation kinetics with WT Ubc9. The series is classed as biochemical. Conditions: Michaelis-Menten, SUMO-1 conjugation; for Km: 100 nM WT Ubc9, 10 μM SUMO-1, 150 nM E1, pH 7.5, SDS-PAGE/SYPRO-RUBY, triplicate; for kcat: 100 nM WT Ubc9, 10 μM SUMO-1, 150 nM E1, pH 7.5, triplicate. Here is the method: as §1, §2, §3

3 molecules from PMC5727262, “Molecular mechanism of K65 acetylation-induced attenuation of Ubc9 and the NDSM interaction” (Scientific Reports, 2017) can be followed below.

One may read the Km as the concentration of substrate that gives half-maximal velocity. In general, kcat refers to the number of substrate molecules converted per active site and unit of time at saturation.

T1 sequence (P63279 2-158): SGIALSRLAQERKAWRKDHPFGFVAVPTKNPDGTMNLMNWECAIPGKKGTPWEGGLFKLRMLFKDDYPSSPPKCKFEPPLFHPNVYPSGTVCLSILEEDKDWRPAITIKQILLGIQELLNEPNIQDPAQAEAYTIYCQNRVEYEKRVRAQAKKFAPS
T2 sequence (P63279 whole entry): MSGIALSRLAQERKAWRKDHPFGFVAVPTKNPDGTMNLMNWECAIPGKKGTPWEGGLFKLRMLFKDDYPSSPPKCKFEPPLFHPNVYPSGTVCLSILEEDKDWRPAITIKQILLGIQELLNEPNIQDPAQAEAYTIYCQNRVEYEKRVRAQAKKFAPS

B1: GST-RanGAP1_481-587: GST fusion of the sumoylation motif region derived from RanGAP1, sumoylation substrate (protein)
chain: KDEATVRMAVQDAVDALMQKAFNSSSFNSNTFLTRLLVHMGLLKSEDKVKAIANLYGPLMALNHMVQQDYFPKALAPLLLAFVTKPNSALESCSFARHSLLQTLYKV
modifications: left off: GST, end not stated, kept
notes: GST fusion of the sumoylation motif region derived from RanGAP1, sumoylation substrate
On to B1, for which, in series [1], the Michaelis constant (Km) worked out at 21 ± 4.4 µM and the kcat was 0.0683 ± 0.005 s⁻¹. Moreover, in series [2], the Km was 24.8 ± 1.7 µM and the turnover number (kcat) came out at 0.0717 ± 0.0017 s⁻¹.

B2: GST-CBP1000-1080: GST fusion of the sumoylation motif region derived from CBP, sumoylation substrate (protein)
chain: ETQAEDTEPDPGESKGEPRSEMMEEDLQGASQVKEETDIAEQKSEPMEVDEKKPEVKVEVKEEEESSSNGTASQSTSPSQP
modifications: left off: GST, end not stated, kept
notes: GST fusion of the sumoylation motif region derived from CBP, sumoylation substrate
For B2, the results for the Km in series [1] and in series [2] were 111 ± 11.6 µM and 63.8 ± 7.9 µM, respectively. The kcat in series [1] is 0.075 ± 0.0067 s⁻¹; in series [2] it was 0.0633 ± 0.0067 s⁻¹.

B3: GST-Elk1_200-261: GST fusion of the sumoylation motif region derived from Elk1, sumoylation substrate (protein)
chain: SPSPLEACLEAEEAGLPLQVILTPPEAPNLKSEELNVEPGLGRALPPEVKVEGPKEELEVAG
modifications: also: GST fusion partner not in chain
notes: GST fusion of the sumoylation motif region derived from Elk1, sumoylation substrate
B3: in series [1], the Michaelis-Menten constant (Km) was found to be 111 ± 7.8 µM and the catalytic constant (kcat) is 0.0667 ± 0.0033 s⁻¹. For the same molecule, in series [2], the Michaelis-Menten constant (Km) came out at 75.2 ± 5.9 µM and the kcat was 0.0617 ± 0.0083 s⁻¹.
